Literature values as cited in publication PMC6325607.

System: Cys149

Cytosolic glyceraldehyde-3-phosphate dehydrogenase (GAPDH) (Arabidopsis thaliana)
pKa: 5.65
